How the values were obtained:
[1] = tested on: E10 rat ciliary ganglion neurons; experiment: Survival and neurite outgrowth of ciliary ganglion neurons with E. coli protein extract; assay type: cell-based
Description: (§1) In addition, protein extracts were prepared from the same cells lysed by treatment with lysozyme followed by three cycles of freezing and thawing. […] No such activity could be detected in control extracts from the same host cells carrying the plasmid vector without the rCNTF gene.

[2] = tested on: chick embryonic spinal motorneurons; experiment: Survival of chick embryonic spinal motorneurons in culture; assay type: cell-based; design: key to Survival: −: not significantly different from control (survival: 8.3 ± 3.8%, mean ± SD, n = 18); ±: about 15-20% (statistically significant from each blank control, p < 0.01); + +: about 35-55%; + ++: about 55-75%
Description: Motorneuron columns were dissected under a stereomicroscope from the lumbar part of the spinal cord of chick embryos on the 6th day of embryonic development and stored in cold calcium and magnesium-free Hanks balanced salt solution supplemented with glucose (4 g/l) (HBSS). The tissues were washed with HBSS and treated with 0.03% trypsin in HBSS at 37° C. for 20 min with gentle shaking, rinsed with cold HBSS and triturated mildly in 3 steps of 8-passage agitation in 1 ml of cold 0.1% soybean trypsin inhibitor (Sigma) in HBSS through a fire-polished siliconized Pasteur pipette. Each supernatant cell suspension was filtered through 50 μm-Nylon mesh, pooled and layered onto 4 ml of cold 6.8% metrizamide (Fluka) in HBSS-25 mM HEPES (pH7.4) in a 12 ml-siliconized conical glass tube. The tube was centrifuged at 400 g for 15 min at 4° C. and the intermediate layer (0.5 ml) was collected into another siliconized tube containing 6.5 ml of cold culture medium (a mixture of glucose (4 g/l)-supplemented Leibovitz's L-15 medium (Gibco), 0.15 M sodium bicarbonate, heat-inactivated and filtered horse serum and penicillin G (10^5 units/ml) at the ratio of 75:15:10:0.1, freshly prepared and buffered with 5% CO2.) After centrifugation at 100×g for 7 min at 4° C., the supernatant was removed and the cells were gently resuspended in culture medium and plated in Greiner 4-well culture dishes (well diameter, 10 mm; C. A. Greiner und Sohne GmbH, Nurtingen, West Germany) at 1000-2000 cells/well. The dishes had been precoated with poly-DL-ornithine (Sigma, 0.5 mg in 0.15 M sodium borate buffer (pH 8.3) overnight at 4° C., rinsed twice with phosphate-buffered saline (PBS) and subsequently coated with laminin (Gibco; 10 μg/ml in the serum-depleted culture medium) and placed in a 5% CO2-incubator until cell plating (5-6 hrs). Cells were incubated at 37° C. in a humidified 5% CO2- and 95% air-incubator. Samples were added one hr after plating and the culture medium changed after 24 hrs and 72 hrs. The initial cell numbers were counted 3 hrs after plating.
In some experiments motor neurons were retrogradely labeled with a fluorescent dye in vivo before cell preparation (U. Dohrman et al., 1986, Dev. Biol. 118:209-221) to identify the motor neuron cell population. A small hole was made in the shell of eggs which had been incubated for 5 days. Small pieces of rhodamine isothiocyanate crystals (Sigma) were inserted at two or three places into each hind limb thigh and the egg hole was sealed with a cellophane tape. The eggs were incubated for another 24 hrs. Some of the operated embryos were then processed for frozen sections after formaldehyde fixation. […] The other embryos were used for cell preparation using the method described above (18.1.1). After 5 hrs in culture cells were rinsed with warm HBSS, fixed with 4% formaldehyde in PBS at room temperature for 20 min, rinsed with PBS and then mounted in glycerol-PBS (1:1) with glass coverslips. Of the total cells approximately 83% were labeled and identified as motorneurons (FIG. 42.) Most of these labeled motorneurons were large cells and the rest were intermediate-size cells. No small cells were labeled. On the other hand, in experiments in which cells were not labeled with a fluorescent dye about 70% of the total cells were large phase-bright cells with round cell somas, about 20% were intermediate-size neurons (most of them may be motorneurons) and about 10% were small immature neurons (they have neuron-like processes with growth cones but have phase-dark semi-flat cell somas). Non-neuronal cells were either not present or accounted for less than 2%. Taken together, one may conclude that at least 83% of the cells are motorneurons while the remainder consists of non-labeled motorneurons, a small number of unidentified intermediate-size neurons and about 10% immature small neurons. […]

[3] = tested on: E8 chick ciliary ganglion neurons; experiment: Survival of dissociated E8 chick ciliary ganglion neurons; assay type: cell-based; details: dissociated, neuron-enriched E8 chick ciliary ganglion cultures
Description: Ciliary neurotrophic factor activity may be evaluated using any CNTF-sensitive in vivo or in vitro system known in the art. For example, and not by way of limitation, in vitro systems have been developed which measure CNTF activity by quantitating 24-hour survival of embryonic (E8) chick ciliary ganglion (CG) neurons in monolayer cultures.
For example, ciliary ganglia may be collected from E8 chick embryos, dissociated (yielding approximately 20,000 cells per ganglion) and then diluted in HEBM medium containing 20 percent horse serum as described in Varon et al. (1979, Brain Res. 173:29-45). About fifty microliters of cell suspension containing neurons (2,000 cells) may then be seeded into microliter dishes and putative CNTF activity may be added. Culture plates may then be maintained at 37° C. in 5% CO2 for 24 hours, after which the cultures may be fixed by the addition of 200 μl 2 per cent glutaraldehyde in HEBM medium, and the number of surviving neurons may be determined visually by direct count under phase contrast microscopy.
Chick embryo ciliary ganglion cultures were created and maintained according to the method set forth in (Hughes et al., 1988, Nature 335 : 70-73).
(§2) Biological activity of recombinant CNTF was assayed on explants of chick embryo dorsal root ganglia (DRG) and dissociated cultures of ciliary ganglion (CG) neurons as described in Lindsay and Rohrer (1985, Devel. Biol 112:30-48). Briefly, DRG were dissected from chick embryos of 10 days incubation (E10) and 5-6 ganglia were explanted in 1 ml of a collagen gel matrix in 35 mm tissue culture dishes. After the gel had set, 1 ml of tissue culture growth medium F14 (Imperial Labs., U.K.) supplemented with 5% heat-inactivated horse serum (GIBCO) was added before adding human CNTF (1-20 l) to a final concentration of 100 pg to 100 ng/ml. CG were dissected from E8 chick embryos and incubated for 30 min in 0.25% trypsin (Worthington) in calcium- and magnesium-free phosphate buffered saline. The ganglia were then washed three times in F14 medium containing 5% horse serum before being dissociated to a single cell suspension by trituration through the bore of a Pasteur pipette. Enrichment for CG neurons was achieved by plating the cell suspension for 3.5 hr in a 60 mm dish, during which non-neuronal cells (fibroblasts and Schwann cells) attached firmly to the plastic while phase-bright neurons remained in suspension. The purified neurons were plated on polyornithine-laminin-coated 35 mm culture dishes at 8,000-10,000 neurons/dish. In explant cultures CNTF activity was determined by assessing the extent of fiber outgrowth in treated cultures compared to controls. Fiber outgrowth was scored on a scale of 0 to 5+, by comparing cultures to photographs of a dose-response of explanted DRG and NGF. In dissociated CG neuron cultures, CNTF activity was determined by counting at 48 hr the percentage of process-bearing neurons in control and CNTF-treated cultures. In all cases results were derived from triplicate cultures.

[4] = tested on: E8 dorsal root ganglion neurons; experiment: Survival and neurite outgrowth of dorsal root ganglion neurons / DRG assay with E. coli protein extracts; assay type: cell-based; details: protein extract of E. coli W3110iqF-/rCNTF-C-1; after 24 and 48 hours in vitro
Description: as §1
Human CNTF sequence, engineered to lack intron sequences, has been inserted into the pCP93 vector and used to transform competent E. coli.

[5] = tested on: dorsal root ganglia and/or dissociated ciliary neurons; experiment: Biological activity of modified and truncated CNTF proteins (rapid bacterial extracts); assay type: cell-based, chick; details: soluble protein extracted from induced bacteria hosting each plasmid; compared with full length parental protein
Description: Samples for gel electrophoresis were prepared by resuspending cell pellets from 0.5 ml culture OD590=2 in 0.16 ml lysis buffer (100 mM TrisHCl, 10% glycerol, 4% sodium dodecyl sulfate, 1 mM dithiothreitol, 0.5 mg/ml bromophenol blue, pH 6.8) and boiling for 5 minutes.
as §2
Biological activity was assayed on dorsal root ganglia and/or dissociated ciliary neurons was determined as described in section 12.1.6. Soluble protein was extracted from induced bacteria hosting each plasmid by the “rapid” protein extraction method described in section 12.1.3.

[6] = tested on: GABAergic neurons (hippocampal cultures); experiment: Effect of other neurotrophic factors on GABAergic hippocampal neurons in culture; assay type: cell-based, rat
Description: Hippocampi were dissected from E18-19 rat embryos of Sprague-Dawley rats, and collected in F10 medium. The tissues were minced, rinsed twice with F10 medium (Gibco) and trypsinized with 0.25% trypsin (Gibco) for 20 minutes at 37° C. Trypsin was inactivated by the addition of a serum-containing medium composed of minimal essential medium (MEM) supplemented with fetal calf serum (FCS, 10%), glutamine (2 mM), penicillin (25 U/ml) and streptomycin (25 ug/ml). Dissociated cells obtained by gentle trituration were collected and centrifuged at low speed (500 rpm) for 30 seconds. The centrifugation was repeated twice, and the cell pellets were then resuspended in serum-containing medium. The cells were then plated onto 6 mm wells or 35 mm dishes that were coated with polyornithine (10 ug/ml) and laminin (10 ug/ml). In most of the experiments, the cells were plated at a low density of approximately 71,000 cells/cm^2. Five to six hours following the plating of cells, medium was changed to a serum-free medium containing 1% N3 and penicillin-streptomycin (25 units/ml and 25 ug/ml, respectively), at which time CNTF was added. Medium was changed every three to four days, with re-addition of the factor. […]

B1: recombinant rat CNTF: rat ciliary neurotrophic factor expressed in E. coli (protein, UniProt P20294 1-200, looked up)
Ciliary neurotrophic factor: MAFAEQTPLTLHRRDLCSRSIWLARKIRSDLTALMESYVKHQGLNKNINLDSVDGVPVASTDRWSEMTEAERLQENLQAYRTFQGMLTKLLEDQRVHFTPTEGDFHQAIHTLMLQVSAFAYQLEELMVLLEQKIPENEADGMPATVGDGGLFEKKLWGLKVLQELSQWTVRSIHDLRVISSHQMGISALESHYGAKDKQM
amount of rCNTF at which maximal activity was seen ([1]; ciliary and dorsal root ganglion neuron cultures): less than 1 nanogram
survival and neurite outgrowth of E10 rat ciliary ganglion neurons ([1]; protein extract of E. coli W3110iqF-/rCNTF-C-1, after 24 and 48 hours in vitro): up to 50%
motorneurons alive after 3 days in culture ([2]; recombinant rat CNTF, 5 ng/ml): about 70%
motorneurons alive after 6 days in culture ([2]; recombinant rat CNTF, 5 ng/ml): about 60%
lowest concentration at which activity was detectable [3]: 2 pg/mL
survival and neurite outgrowth of E8 dorsal root ganglion neurons [4]: approximately 30%

B2: pRPN109: hCNTF with serine in place of cysteine at amino acid 17, encoded in plasmid pRPN109 (protein, UniProt P26441 1-200, looked up, variant C17S)
Ciliary neurotrophic factor: MAFTEHSPLTPHRRDLSSRSIWLARKIRSDLTALTESYVKHQGLNKNINLDSADGMPVASTDQWSELTEAERLQENLQAYRTFHVLLARLLEDQQVHFTPTEGDFHQAIHTLLLQVAAFAYQIEELMILLEYKIPRNEADGMPINVGDGGLFEKKLWGLKVLQELSQWTVRSIHDLRFISSHQTGIPARGSHYIANNKKM
biological activity [5]: as active as the full length protein

B3: pRPN59: hCNTF interrupted after the 185th codon, followed by 10 additional unrelated amino acids (protein, UniProt P26441 1-185, looked up, fragment)
chain: MAFTEHSPLTPHRRDLCSRSIWLARKIRSDLTALTESYVKHQGLNKNINLDSADGMPVASTDQWSELTEAERLQENLQAYRTFHVLLARLLEDQQVHFTPTEGDFHQAIHTLLLQVAAFAYQIEELMILLEYKIPRNEADGMPINVGDGGLFEKKLWGLKVLQELSQWTVRSIHDLRFISSHQTG
modifications: plus 10 unrelated C-terminal residues
biological activity [5]: as active as the full length protein

B4: pRPN112: hCNTF interrupted after the 145th codon plus one leucine; lacks 55 carboxyl-terminal residues (protein, UniProt P26441 1-145, looked up, fragment)
chain: MAFTEHSPLTPHRRDLCSRSIWLARKIRSDLTALTESYVKHQGLNKNINLDSADGMPVASTDQWSELTEAERLQENLQAYRTFHVLLARLLEDQQVHFTPTEGDFHQAIHTLLLQVAAFAYQIEELMILLEYKIPRNEADGMPIN
modifications: plus one C-terminal leucine
notes: hCNTF interrupted after the 145th codon plus one leucine; lacks 55 carboxyl-terminal residues
biological activity [5]: inactive

B5: pRPN65: rCNTF terminated immediately after the 165th codon (protein, UniProt P20294 1-165, looked up, fragment)
chain: MAFAEQTPLTLHRRDLCSRSIWLARKIRSDLTALMESYVKHQGLNKNINLDSVDGVPVASTDRWSEMTEAERLQENLQAYRTFQGMLTKLLEDQRVHFTPTEGDFHQAIHTLMLQVSAFAYQLEELMVLLEQKIPENEADGMPATVGDGGLFEKKLWGLKVLQEL
biological activity [5]: inactivated

B6: BDNF: brain derived neurotrophic factor (porcine in Table VI) (protein, UniProt P14082 134-252, looked up)
Neurotrophic factor BDNF: HSDPARRGELSVCDSISEWVTAADKKTAVDMSGGTVTVLEKVPVSKGQLKQYFYETKCNPMGYTKEGCRGIDKRHWNSQCRTTQSYVRALTMDSKKRIGWRFIRIDTSCVCTLTIKRGR
modifications: Neurotrophic factor BDNF
effect on / survival of GABAergic neurons [6]: does not seem to promote the survival
Survival ([2]; after 3 days in culture, one concentration per molecule, Table VI, CNTF rat, rec.): −
survival effect on motoneurons ([2]; supramaximal concentrations, NT-3 produced by transfected Cos-cells): no discernable effect
